Laboratory results published in PMC9574934, “Targeting the Phosphatidylserine-Immune Checkpoint with a Small-Molecule Maytansinoid Conjugate” (Journal of Medicinal Chemistry, 2022).
“Also recorded” adds a separate entry of the source.

Tests used:
[1] = Plasma incubation and tumor homogenate cleavage of conjugate; assay type: in vitro ADME
Excerpt: Figure 3 In vivo targeting ability, plasma stability, and in vivo biodistribution of modified zinc dipicolylamine conjugates in subcutaneous HCC1806 tumor xenografts. […] (B) In vivo detection of PS-expression in the HCC1806 tumor xenograft model. Representative IVIS images of new Zn11-794 fluorescence probe in mice.

[2] = Description: Six-week-old male ICR mice, from the Biolasco Taiwan, were divided into groups of three and dosed at 5 mg/kg intravenously. Blood samples were drawn from each animal at time points of 0.003, 0.083, 0.25, 0.5, 1, 2, 4, 6, 8, and 24 h and stored on ice (0–4 °C). With centrifugation (3000 rpm for 15 min at 4 °C in a Beckman Model Allegra 6R centrifuge), plasma was separated from the blood and stored in frozen conditions (−20 °C). […] The mice were sacrificed, and the blood samples of 0.5 mL each and tumor samples were collected at 0.5, 2, 6, 24, 72, and 168 h after administration. Each time point group included 4 mice. Mouse blood samples were collected in EDTA tubes and centrifuged at 13,000 rpm for 5 min at 4°C for plasma collection. Plasma and the harvested tumor samples were stored at −80°C until use. Fifty microliters of mouse plasma or the sample of tumor homogenated in ddH2O with dilution ratio of 1:3 (w/v) by MiniBeadbeater-16 (BioSpec Products Inc., OK, USA) was mixed with 100 μL of acetonitrile containing 250 ng/mL BPR0L187. The mixture was vortexed for 30 s and then centrifuged at 15000g for 20 min. The supernatant was transferred to a clean tube, and 15 μL of the supernatant was injected onto LC/MS/MS. Plasma samples were analyzed by liquid chromatography tandem mass spectrometry (LC/MS/MS). […]
[3] = system: immunogenic gene expression in the TME; details: treated HCC tumor tissue vs vehicle
Description: (§1) In addition, a previously reported oncogene-induced, sorafenib-resistant HCC mouse model[50] was used in the current study to examine the antitumor activities of synthesized compounds. Male C57BL/6j mice 4–5 weeks old were purchased from the National Laboratory Animal Center (Taipei, Taiwan) and kept in the laboratory animal center (LAC) of NHRI. The mice received 2 μg of pCMV(CAT)T7-SB100 (Addgene #34879), 10 μg of pT/Caggs-NRASV12 (Addgene #20205), and 10 μg of pKT2/CLP-AKT-LUC plasmids through hydrodynamic injection and were monitored for tumor growth weekly using IVIS until the development of HCC in the liver. The animal study was reviewed and approved by the NHRI IACUC (Institutional Animal Care and Use Committee). HCC-bearing mice with the total flux from IVIS imaging above 1 × 10^9 photons/s were used for treatment of conjugates. […] Repetitive IVIS imaging was performed to track tumor progression, and tumor tissues of the treated HCC-bearing mice were collected at day 3, day 7, and day 14 post conjugate administrations for histological examination and RNA extraction. The tumor tissues of vehicle-treated HCC-bearing mice were collected at day 14 post treatment to serve as control samples.
The concentration (absorbance at 260 nm) and purity (A260/280 and A260/230 ratios) of the extracted RNA were measured by spectrophotometry, and the integrity of the RNA was further determined by a 2100 Bioanalyzer system (Agilent Technologies). The RNA, hybridized with barcoded probes (NanoString Technologies) provided in the nCounter Mouse PanCancer Immune Profiling panel kit, was then used for measurement of the mRNA expression of 770 genes related to immune responses. Nanostring nSolver 4.0 and nCounter advanced analysis 2.0 software (NanoString Technologies) were used for data processing, immune cell profiling, and pathway scoring according to developer’s instructions.

[4] = system: HCC tumor microenvironment; details: HCC model
Description: as §1

[5] = system: sorafenib-resistant hepatocellular carcinoma (HCC) model
Description: as §1

[6] = Single intravenous dose pharmacokinetic study
Description: Six-week-old male ICR mice, from the Biolasco Taiwan, were divided into groups of three and dosed at 5 mg/kg intravenously. Blood samples were drawn from each animal at time points of 0.003, 0.083, 0.25, 0.5, 1, 2, 4, 6, 8, and 24 h and stored on ice (0–4 °C). With centrifugation (3000 rpm for 15 min at 4 °C in a Beckman Model Allegra 6R centrifuge), plasma was separated from the blood and stored in frozen conditions (−20 °C). […] The mice were sacrificed, and the blood samples of 0.5 mL each and tumor samples were collected at 0.5, 2, 6, 24, 72, and 168 h after administration. Each time point group included 4 mice. Mouse blood samples were collected in EDTA tubes and centrifuged at 13,000 rpm for 5 min at 4°C for plasma collection. Plasma and the harvested tumor samples were stored at −80°C until use. Fifty microliters of mouse plasma or the sample of tumor homogenated in ddH2O with dilution ratio of 1:3 (w/v) by MiniBeadbeater-16 (BioSpec Products Inc., OK, USA) was mixed with 100 μL of acetonitrile containing 250 ng/mL BPR0L187. The mixture was vortexed for 30 s and then centrifuged at 15000g for 20 min. The supernatant was transferred to a clean tube, and 15 μL of the supernatant was injected onto LC/MS/MS. Plasma samples were analyzed by liquid chromatography tandem mass spectrometry (LC/MS/MS). The chromatographic system Agilent 1200 series LC system and an Agilent ZORBAX Eclipse XDB-C8 column (5 μm, 3.0 × 150 mm) interfaced to an MDS Sciex API4000 tandem mass spectrometer equipped with an ESI in the positive scanning mode at 600 °C was used. Data acquisition was collected via multiple reactions monitoring (MRM). A gradient system was employed for the separation of analyte and IS. Mobile phase A was 10 mM ammonium acetate aqueous solution containing 0.1% formic acid. Mobile phase B was acetonitrile. The gradient profile was as follows: 0.0–1.1 min, 50% B; 1.2–3.7 min, 55%B–90%B; 3.8–5.0 min, 90%B–50%B. The flow rate was 1.5 mL/min. The autosampler was programmed to inject 15 μL of the sample every 5 min.

[7] = system: MIA PaCa-2 human xenografts; assay: MIA PaCa-2 xenograft antitumor efficacy; details: 1 mg/kg intravenously twice weekly for two weeks (Figure 4)
Description: (§2) Cancer cells, suspending in phenol red free medium/DPBS, were mixed with Matrigel (356237, BD Biosciences, San Jose CA, USA) in a 1:1 ratio. Human pancreatic cancer MIA PaCa-2 (1 × 10^6 cells) or triple-negative breast cancer HCC1806 (1 × 10^6cells) cells were subcutaneously inoculated to left flanks of male nude mice 6 weeks old (Biolasco, Taiwan) or female nude mice 6 weeks old by using a 1 mL syringe (needle 24G × 1 in., 0.55 × 25 mm; TERUMO). Tumor dimensions were measured twice a week with an electronic caliper (FOW54-200-777, PRO-MAX, Newton, Massachusetts, USA), and the volume of the subcutaneously growing tumor in mm^3 was calculated by the following formula: volume = (length × width[2])/2. Conjugates were formulated 10% DMA/20% Cremophor EL/70% injectable solution of 5% dextrose (D5W) for treating MIA PaCa-2 and HCC1806 xenograft tumors. […] Body weight of the mice and tumor volume were measured twice weekly.

[8] = system: ovarian, skin, and oral cancer cell lines; details: Figure S2
[9] = system: HCC1806 triple-negative breast cancer (TNBC) xenografts
Description: as §2

[10] = rats, 1 mg/kg i.v. once a week for 4 weeks
Description: The animal body weights were measured daily during the study period. At the end of the study on day 29, all the animals were euthanized with 100% CO2 and sacrificed for organ harvest followed by organ weight measurements and for blood sample collection followed by hematology and serum chemistry assays. Hematology and serum chemistry parameters were determined using a HEMAVET 950 automated analyzer (Drew Scientific, Santa Clara, CA, USA) and a FUJI DRI-CHEM NX500 automated analyzer (FUJIFILM, Tokyo, Japan), respectively.

CCCCCC(=O)Nc1cccc(CN(Cc2cc(CN(Cc3ccccn3)Cc3cccc(NC(=O)CCCCC)n3)cc(OCCCCN(Cc3ccc(-c4ccccc4)cc3)C(=O)COCCOCCOCC(=O)NCc3ccc(CNC(=O)CCSSCCC(=O)N(C)[C@@H](C)C(=O)O[C@H]4CC(=O)N(C)c5cc(cc(OC)c5Cl)C/C(C)=C/C=C\[C@@H](OC)[C@@]5(O)C[C@H](OC(=O)N5)[C@@H](C)[C@@H]5O[C@@]45C)cc3)c2)Cc2ccccn2)n1.O=[N+]([O-])[O-].O=[N+]([O-])[O-].O=[N+]([O-])[O-].O=[N+]([O-])[O-].[Zn+2].[Zn+2] [Compound 40a]
stability in plasma incubation ([1]; plasma): stable
cleavage with tumor homogenates ([1]; tumor homogenate): readily cleaved
plasma stability in vivo, detection of released 14 ([2]; plasma of HCC1806 tumor-bearing mice): negligible detection of 14
14 released from 40a in the tumor mass ([2]; tumor tissue of HCC1806 tumor-bearing mice): significant time-dependent increase
gene expression of CCL2 [3]: significantly elevated
gene expression of CCL5 and CXCL10 [3]: Significant increases
gene expression of STAT1 [3]: significantly elevated
T-cell, macrophage, NK cell, chemokine and receptor functions and inflammation score (gene set analysis) ([3]; n = 3): striking elevations
Ki67 expression in treated tumors ([4]; 1 mg/kg i.v.): reduction
infiltration of Gr-1+ monocytes and polymorphonuclear granulocytes and F4/80+ macrophages ([4]; IHC staining): increased infiltration
cytotoxic CD8+ T-cell infiltration ([4]; days 3, 7, and 14): significant increase
tumor burden by bioluminescence ([5]; 1 mg/kg i.v. twice weekly for two weeks): significant decrease
activity against HCC tumor growth ([5]; 1 mg/kg injected twice weekly for two weeks): potent activity
total liver weight ([5]; 14 days after treatment): marked reduction
decrease in volume distribution (Vss) ([6]; 40a compared with conjugates 30 and 36): 5 fold
AUC(0-24 hr) Conjugate ([6]; intact conjugate, male ICR mice, 5 mg/kg intravenous): 105,599 ng/mL*hr
CL ([6]; male ICR mice, 5 mg/kg intravenous, n = 3): 0.9 mL/min/kg
Vss ([6]; male ICR mice, 5 mg/kg intravenous, n = 3, 5 mg/kg): 0.1 L/kg
AUC(0-24 hr) Drug ([6]; released payload 14, male ICR mice, 5 mg/kg intravenous of conjugate): 305 ng·h/mL
antitumor efficacy [7]: potent antitumor efficacies; also recorded: potent and lasting anti-MIA PaCa-2 activity
body weight change during treatment [7]: without apparent body weight loss
potency against ovarian, skin, and oral cancer cell lines [8]: highly potent
antitumor efficacy against HCC1806 TNBC xenografts ([9]; intravenous twice per week (Figure 4B)): potent antitumor efficacy
efficacy on larger HCC1806 tumors ([9]; larger (400–800 mm^3) tumors, 2.5 mg/kg once per week for three weeks): potent efficacies and shrinkage
BUN and creatinine levels [10]: normal
GOT and GPT [10]: slightly increased (not significant)
hematologic (leukocyte, neutrophil, lymphocyte, and platelet) parameters [10]: normal
organ weights (liver and kidneys) [10]: did not alter organ weights
